Experiment [1] concerns the target PIF receptor (mouse; C2C12 membranes and mouse tissue plasma membranes) (mouse (C2C12 myotubes)). The experiment is described as follows: cell-based or functional assay.
Experiment [2] deals with PIF receptor (pig sarcolemma membranes) (pig). Description: Scatchard analysis of [35S]PIF binding to pig sarcolemma membranes, first site.
Experiment [3] has the same target. Description: Scatchard analysis of [35S]PIF binding to pig sarcolemma membranes, second site.
The target of experiment [4] is PIF receptor (mouse; C2C12 membranes and mouse tissue plasma membranes) (mouse (C2C12 myotubes)). Description: Scatchard analysis of [35S]PIF binding to mouse heart plasma membranes, first site.
Experiment [5] has the same target. The experiment is described as follows: Scatchard analysis of [35S]PIF binding to mouse liver plasma membranes, first site.
Experiment [6] has the same target. The experiment is described as follows: Scatchard analysis of [35S]PIF binding to mouse heart plasma membranes, second site.
The target is the same in experiment [7]. Description: Scatchard analysis of [35S]PIF binding to mouse liver plasma membranes, second site.
Experiment [8] has as its target PIF receptor (human muscle cell line Hs94MU membranes) (human). Description: Scatchard analysis of [35S]PIF binding to Hs94MU human muscle cell membranes, first site.
Experiment [9] has the same target. The experiment is described as follows: Scatchard analysis of [35S]PIF binding to Hs94MU human muscle cell membranes, second site.
The target in experiment [10] is PIF receptor (mouse; C2C12 membranes and mouse tissue plasma membranes) (mouse (C2C12 myotubes)). The experiment is described as follows: Scatchard analysis of [35S]PIF binding to mouse soleus muscle plasma membranes, first site.
For experiment [11] the target is unchanged. Description: Scatchard analysis of [35S]PIF binding to mouse soleus muscle plasma membranes, second site.
For experiment [12] the target is unchanged. Description: Scatchard analysis of [35S]PIF binding to mouse gastrocnemius muscle sarcolemma membranes, first site.
Experiment [13] shares this target. Description: Scatchard analysis of [35S]PIF binding to C2C12 membranes, second site (column headed Kaff2 x 10^-9 M).
Experiment [14] shares this target. The experiment is described as follows: Scatchard analysis of [35S]PIF binding to mouse gastrocnemius muscle sarcolemma membranes, second site.
For experiment [15] the target is unchanged. Description: comparison of the affinity of PIF for muscle cell binding sites with its affinity for the MAC16 monoclonal antibody.
The target is the same in experiment [16]. Description: Scatchard analysis of [35S]PIF binding to C2C12 membranes, first site (column headed Kaff x 10^-10 M; text calls it Kd).
The target of experiment [17] is Proteolysis Inducing Factor (PIF) (mouse (MAC16 cells)). The experiment is described as follows: cell-based or functional assay.

Here are results for two molecules from patent US20120301404A1.

As usually defined, the Kd is the concentration at which binding is half-saturated. Low readings indicate higher affinity, high ones lower affinity. With “Proteolysis Inducing Factor (PIF) (ligand)”, in experiment [1], the increased rate of protein degradation in C2C12 myoblasts over 24 and 48 h, effective concentrations was in the range of 0.14 to 1.4 nM. Moreover, in experiment [1], the rate of protein degradation (release of L-[2,6-3H]phenylalanine) in C2C12 myoblasts, concentration of maximal effect at 6 h lay within 0.98 to 1.4 nM. For the same molecule, the Kd in [2] is 0.47 nM; in experiment [3], 8.2 nM; in experiment [4] it was 0.3 nM; in experiment [5] it was 0.69 nM; in [6], 2.3 nM; in experiment [7], 0.2 nM. The Kd in [8] worked out at 0.11 nM; in experiment [9], 1.7 nM; in [10] it was 0.01 nM; in experiment [11], 0.12 nM; in [12] it was 0.52 nM; in experiment [13], 1.2 nM. The dissociation constant Kd came to 0.1 nM in experiment [14] and 0.14 nM in [16]. In addition, the fold greater affinity than binding to a monoclonal antibody in experiment [15] fell in the range of 10 to 100 fold.

B1: N-terminal synthetic peptide of the PIF receptor (peptide of SEQ ID No. 1) (peptide)
peptide: DINGGGATLPQPLYQTAAVLTAGFA
In [17], B1 registered a PIF-induced increase in chymotrypsin-like enzyme activity of 10 µM and a PIF-induced protein degradation in murine myotubes of 10 µM.
